{"source": "paper PMC2409454", "origin": "cited, not measured here", "biological_target": "pRb (Homo sapiens) (UniProt P06400)", "sequence (P06400 2-928)": "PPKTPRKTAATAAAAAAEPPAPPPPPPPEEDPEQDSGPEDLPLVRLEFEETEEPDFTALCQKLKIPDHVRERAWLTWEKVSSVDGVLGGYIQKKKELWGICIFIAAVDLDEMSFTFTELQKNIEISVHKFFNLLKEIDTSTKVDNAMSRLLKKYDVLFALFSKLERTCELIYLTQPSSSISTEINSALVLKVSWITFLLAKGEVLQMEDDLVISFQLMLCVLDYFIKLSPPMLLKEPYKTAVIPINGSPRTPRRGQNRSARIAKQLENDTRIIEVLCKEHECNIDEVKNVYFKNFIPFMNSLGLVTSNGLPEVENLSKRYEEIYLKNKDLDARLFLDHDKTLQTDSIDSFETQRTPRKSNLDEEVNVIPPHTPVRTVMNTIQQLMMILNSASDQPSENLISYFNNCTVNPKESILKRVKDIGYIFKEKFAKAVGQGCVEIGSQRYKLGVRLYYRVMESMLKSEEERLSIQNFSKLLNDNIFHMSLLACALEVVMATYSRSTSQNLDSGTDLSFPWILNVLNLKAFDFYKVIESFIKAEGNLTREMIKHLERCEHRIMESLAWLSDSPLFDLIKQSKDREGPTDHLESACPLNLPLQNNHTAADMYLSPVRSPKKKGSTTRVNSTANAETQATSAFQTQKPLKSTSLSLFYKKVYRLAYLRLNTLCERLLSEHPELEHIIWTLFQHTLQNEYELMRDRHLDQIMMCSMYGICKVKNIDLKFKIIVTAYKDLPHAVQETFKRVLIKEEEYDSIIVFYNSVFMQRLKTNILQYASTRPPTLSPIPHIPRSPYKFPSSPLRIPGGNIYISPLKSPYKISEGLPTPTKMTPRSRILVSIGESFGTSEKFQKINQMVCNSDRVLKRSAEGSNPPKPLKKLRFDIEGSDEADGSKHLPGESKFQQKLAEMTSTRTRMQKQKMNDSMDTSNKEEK", "data": [{"substance": "E7 (from UniProt P03129)", "values": [{"measurement": "Kd", "result": 4.5, "unit": "nM"}]}]}
